Test results reported in PMC8324494 (Cell Reports Medicine, 2021).

How the values were obtained:
[1] = biological target: GPC2 clone of the Membrane Proteome Array (Homo sapiens (Human)., UniProt Q8N158); experiment: flow cytometry on cells
[2] = biological target: endogenous GPC2 on high-GPC2-expressing neuroblastoma cell lines (Homo sapiens (Human)., UniProt Q8N158); experiment: flow cytometry on cells
[3] = biological target: murine Gpc2 on the surface of cells (Gpc2 pLenti CMV puro vector) (Mus musculus (Mouse)., UniProt Q8BKV1); experiment: flow cytometry on cells
murine Gpc2 on the surface of cells (Gpc2 pLenti CMV puro vector), sequence (Q8BKV1 22-556): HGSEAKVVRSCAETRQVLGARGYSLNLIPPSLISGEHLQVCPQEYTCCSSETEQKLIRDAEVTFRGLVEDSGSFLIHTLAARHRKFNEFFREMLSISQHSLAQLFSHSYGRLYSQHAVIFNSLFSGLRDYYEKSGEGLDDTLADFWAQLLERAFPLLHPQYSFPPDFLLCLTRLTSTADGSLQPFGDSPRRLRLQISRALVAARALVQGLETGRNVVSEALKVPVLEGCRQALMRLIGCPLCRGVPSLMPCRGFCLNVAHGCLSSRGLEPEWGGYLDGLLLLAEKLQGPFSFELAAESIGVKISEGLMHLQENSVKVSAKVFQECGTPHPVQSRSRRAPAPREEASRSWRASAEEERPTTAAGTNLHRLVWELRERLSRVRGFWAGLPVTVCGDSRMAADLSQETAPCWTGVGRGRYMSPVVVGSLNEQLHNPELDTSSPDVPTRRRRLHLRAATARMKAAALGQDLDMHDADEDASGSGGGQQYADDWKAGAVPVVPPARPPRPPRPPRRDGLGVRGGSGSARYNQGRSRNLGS

[4] = biological target: human GPC2 on the surface of cells (GPC2 pLenti CMV puro vector) (Homo sapiens (Human)., UniProt Q8N158); experiment: flow cytometry on cells
human GPC2 on the surface of cells (GPC2 pLenti CMV puro vector), sequence (Q8N158 24-554): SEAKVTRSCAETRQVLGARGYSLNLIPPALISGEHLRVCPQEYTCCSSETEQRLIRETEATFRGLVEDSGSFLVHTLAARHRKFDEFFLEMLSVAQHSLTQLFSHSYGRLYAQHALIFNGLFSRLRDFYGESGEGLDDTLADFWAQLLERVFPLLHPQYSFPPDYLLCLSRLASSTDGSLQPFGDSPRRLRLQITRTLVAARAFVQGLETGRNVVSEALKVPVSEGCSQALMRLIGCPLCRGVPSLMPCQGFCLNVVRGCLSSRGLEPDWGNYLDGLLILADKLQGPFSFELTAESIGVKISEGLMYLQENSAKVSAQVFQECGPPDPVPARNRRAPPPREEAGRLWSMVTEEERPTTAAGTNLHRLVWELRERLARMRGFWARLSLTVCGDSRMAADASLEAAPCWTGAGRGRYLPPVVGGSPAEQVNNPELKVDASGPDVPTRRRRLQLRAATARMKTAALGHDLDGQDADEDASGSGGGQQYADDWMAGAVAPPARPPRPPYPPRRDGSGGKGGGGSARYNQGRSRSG

[5] = biological target: GPC2^24-493 (fully glycanated) (Homo sapiens (Human)., UniProt Q8N158); experiment: BLI
GPC2^24-493 (fully glycanated), sequence (Q8N158 24-493): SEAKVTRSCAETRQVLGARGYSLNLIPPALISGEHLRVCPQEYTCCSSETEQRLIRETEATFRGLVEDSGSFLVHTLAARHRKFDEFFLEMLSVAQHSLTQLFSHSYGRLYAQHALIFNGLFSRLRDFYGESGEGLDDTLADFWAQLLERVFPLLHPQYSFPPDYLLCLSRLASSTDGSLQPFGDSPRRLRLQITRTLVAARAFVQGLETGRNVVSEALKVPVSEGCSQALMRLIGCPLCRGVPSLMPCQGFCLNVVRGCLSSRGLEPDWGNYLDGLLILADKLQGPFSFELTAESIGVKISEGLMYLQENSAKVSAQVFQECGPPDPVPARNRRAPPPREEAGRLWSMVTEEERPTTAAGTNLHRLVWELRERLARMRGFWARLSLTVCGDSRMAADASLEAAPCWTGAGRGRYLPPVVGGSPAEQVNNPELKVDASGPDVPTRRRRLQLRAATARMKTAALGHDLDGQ

[6] = biological target: GPC2^24-554 (fully glycanated) (Homo sapiens (Human)., UniProt Q8N158); experiment: BLI
GPC2^24-554 (fully glycanated), sequence (Q8N158 24-554): as the sequence (Q8N158 24-554) above

Measured: binding result

GPC2 clone of the Membrane Proteome Array, sequence (Q8N158 24-554): as above
endogenous GPC2 on high-GPC2-expressing neuroblastoma cell lines, sequence (Q8N158 24-554): as above

B1: D3-GPC2-IgG1 (fully human GPC2 antibody, full-length human IgG1) (antibody, V domains shown)
VH: EVQLVETGGGVVKPGGSLRLSCAASGFTFSDYYMSWIRQAPGKGLEWVSYISSSGSTIYYADSVKGRFTISRDNSKNTLYLQMNSLRAEDTAVYYCARESGYDYVFDYWGQGTLVAVSS
VL: DIQMTQSPSTLSAFVGDRVTITCRASQSISSWLAWYQQKPGKAPKLLIYAASTLQSGVPSRFSGSGSGTEFTLTISSLQPEDFATYYCQQLNSYPITFGQGTRLEIK
binds: [1] | [2] | [3] | [4]

B2: D3-GPC2 antigen-binding fragment (D3-GPC2-Fab) (Fab, V domains shown)
VH: EVQLVETGGGVVKPGGSLRLSCAASGFTFSDYYMSWIRQAPGKGLEWVSYISSSGSTIYYADSVKGRFTISRDNSKNTLYLQMNSLRAEDTAVYYCARESGYDYVFDYWGQGTLVAVSS
VL: DIQMTQSPSTLSAFVGDRVTITCRASQSISSWLAWYQQKPGKAPKLLIYAASTLQSGVPSRFSGSGSGTEFTLTISSLQPEDFATYYCQQLNSYPITFGQGTRLEIK
binds: [5] | [6]
